Assay results as given in publication PMC11096381.

Target: serum immunoglobulin M (IgM), endogenous mouse (mouse (endogenous in C57BL/6 mice))
Experiment: SEC + other: SDS-PAGE with western blot keeping disulfide bonds; peritoneal fluid and serum of healthy WT mice (0 h); 7.5% SDS-PAGE under conditions that prevent disruption of CD5L-IgM disulfide bonds, western blot for CD5L, densitometry of IgM-bound and free bands; WT serum also fractionated on Superose 12 10/300 GL in PBS and fractions blotted for CD5L and IgM

B1: CD5 antigen-like (CD5L), endogenous mouse protein (natural protein)
chain: ESPTKVQLVGGAHRCEGRVEVEHNGQWGTVCDDGWDRRDVAVVCRELNCGAVIQTPRGASYQPPASEQRVLIQGVDCNGTEDTLAQCELNYDVFDCSHEEDAGAQCENPDSDLLFIPEDVRLVDGPGHCQGRVEVLHQSQWSTVCKAGWNLQVSKVVCRQLGCGRALLTYGSCNKNTQGKGPIWMGKMSCSGQEANLRSCLLSRLENNCTHGEDTWMECEDPFELKLVGGDTPCSGRLEVLHKGSWGSVCDDNWGEKEDQVVCKQLGCGKSLHPSPKTRKIYGPGAGRIWLDDVNCSGKEQSLEFCRHRLWGYHDCTHKEDVEVICTDFDV
percent of CD5L bound to IgM: > 90%
